# Residue numbers refer to the chain shown, from its start.
# T1: claudin-18.2 antigen (manufacturer: GenScript, batch number: R50092011) (UniProt P56856-2 1-261, limits assumed)
# T1 construct: Bought antigen
# T1 sequence (looked up): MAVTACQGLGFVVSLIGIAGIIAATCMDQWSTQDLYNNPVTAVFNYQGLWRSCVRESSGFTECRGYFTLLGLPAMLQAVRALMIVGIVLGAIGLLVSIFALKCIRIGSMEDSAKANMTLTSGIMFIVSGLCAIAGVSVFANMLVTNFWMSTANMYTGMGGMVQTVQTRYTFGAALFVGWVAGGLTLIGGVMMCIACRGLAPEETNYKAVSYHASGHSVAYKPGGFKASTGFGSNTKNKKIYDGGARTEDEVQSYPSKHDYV
# B1: 1B6-huVH1huVL2 (antibody, human IgG4 S228P, kappa)
# heavy: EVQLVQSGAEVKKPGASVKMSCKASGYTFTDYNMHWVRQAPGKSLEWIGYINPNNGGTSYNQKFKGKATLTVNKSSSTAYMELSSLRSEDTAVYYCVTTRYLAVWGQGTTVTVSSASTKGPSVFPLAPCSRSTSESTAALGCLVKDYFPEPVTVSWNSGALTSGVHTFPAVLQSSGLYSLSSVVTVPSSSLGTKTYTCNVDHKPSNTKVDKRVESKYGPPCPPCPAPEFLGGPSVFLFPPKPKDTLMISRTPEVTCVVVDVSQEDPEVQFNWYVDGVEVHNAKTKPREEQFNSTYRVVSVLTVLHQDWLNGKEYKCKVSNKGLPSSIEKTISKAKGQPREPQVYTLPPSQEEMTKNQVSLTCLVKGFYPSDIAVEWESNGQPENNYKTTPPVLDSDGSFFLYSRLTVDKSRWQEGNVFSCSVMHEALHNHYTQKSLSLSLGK
# light: DIQMTQSPSSLSASVGDRVTMTCKSSQSLFNSGNQKNYLTWYQQKPGKAPKLLIYWASTRESGVPSRFSGSGSGTDFTLTISSLQPEDFATYYCQNDYSYPLTFGGGTKLEIKRTVAAPSVFIFPPSDEQLKSGTASVVCLLNNFYPREAKVQWKVDNALQSGNSQESVTEQDSKDSTYSLSSTLTLSKADYEKHKVYACEVTHQGLSSPVTKSFNRGEC
# notes: humanized 1B6, human IgG4, kappa
# B2: 1B6-huVH1-HC (IgG1) huVL1 (antibody)
# heavy: not shown
# light: B1 light with Q3V, A13V, S66D, L84V, Y93F
# notes: humanized 1B6, human IgG1, kappa
# B3: 1E7-huVH3huVL2 (antibody, human IgG4 S228P, kappa)
# heavy: not shown
# light: B1 light with F30L, L102F
# notes: humanized 1E7, human IgG4, kappa
# B4: 1B6-huVH3-HC (IgG1) huVL2 (antibody)
# heavy: not shown
# light: B1 light
# notes: as for B2
# B5: 1B6-huVH2-HC (IgG1) huVL1 (antibody)
# heavy: not shown
# light: B1 light with Q3V, A13V, S66D, L84V, Y93F
# notes: as for B2
# B6: 1B6-huVH3huVL3 (antibody, human IgG4 S228P, kappa)
# heavy: not shown
# light: B1 light with M21I, K24R
# notes: as for B1
# B7: 1B6-huVH3-HC (IgG1) huVL3 (antibody)
# heavy: not shown
# light: B1 light with M21I, K24R
# notes: as for B2
# B8: 1B6-huVH3huVL1 (antibody, human IgG4 S228P, kappa)
# heavy: not shown
# light: B1 light with Q3V, A13V, S66D, L84V, Y93F
# notes: humanized 1B6, human IgG4, kappa; also called P04887
# B9: 1B6-huVH5huVL2 (antibody, human IgG4 S228P, kappa)
# heavy: not shown
# light: B1 light
# notes: as for B1
# B10: 1B6-huVH4huVL2 (antibody, human IgG4 S228P, kappa)
# heavy: not shown
# light: B1 light
# notes: as for B1
# B11: 1E7-huVH1huVL2 (antibody, human IgG4 S228P, kappa)
# heavy: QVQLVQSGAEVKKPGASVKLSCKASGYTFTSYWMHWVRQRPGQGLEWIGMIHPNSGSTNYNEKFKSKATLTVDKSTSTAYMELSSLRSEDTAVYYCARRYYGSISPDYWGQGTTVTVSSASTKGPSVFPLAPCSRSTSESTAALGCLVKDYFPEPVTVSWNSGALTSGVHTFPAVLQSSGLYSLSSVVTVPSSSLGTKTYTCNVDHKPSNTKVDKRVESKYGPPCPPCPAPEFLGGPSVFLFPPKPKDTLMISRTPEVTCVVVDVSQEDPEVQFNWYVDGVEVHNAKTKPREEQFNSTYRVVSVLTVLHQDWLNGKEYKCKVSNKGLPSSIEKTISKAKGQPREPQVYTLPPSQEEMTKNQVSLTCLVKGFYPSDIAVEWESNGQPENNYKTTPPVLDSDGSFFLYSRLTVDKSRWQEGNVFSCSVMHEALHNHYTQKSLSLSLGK
# light: B1 light with F30L, L102F
# notes: as for B3
# B12: 1E7-huVH5huVL2 (antibody, human IgG4 S228P, kappa)
# heavy: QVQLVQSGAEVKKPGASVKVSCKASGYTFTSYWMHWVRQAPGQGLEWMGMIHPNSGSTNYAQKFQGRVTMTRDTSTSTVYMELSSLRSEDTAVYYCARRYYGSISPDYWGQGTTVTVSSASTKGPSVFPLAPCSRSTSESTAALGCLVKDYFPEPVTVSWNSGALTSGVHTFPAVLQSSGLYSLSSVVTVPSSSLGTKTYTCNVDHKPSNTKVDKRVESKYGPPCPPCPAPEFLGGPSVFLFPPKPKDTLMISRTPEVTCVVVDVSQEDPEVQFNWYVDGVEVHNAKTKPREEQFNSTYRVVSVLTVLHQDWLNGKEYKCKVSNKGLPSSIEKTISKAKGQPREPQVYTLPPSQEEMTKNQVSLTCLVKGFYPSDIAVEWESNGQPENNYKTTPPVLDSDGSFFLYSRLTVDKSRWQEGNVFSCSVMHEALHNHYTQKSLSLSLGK
# light: B1 light with F30L, L102F
# notes: as for B3
# B13: 1E7-huVH4huVL3 (antibody, human IgG4 S228P, kappa)
# heavy: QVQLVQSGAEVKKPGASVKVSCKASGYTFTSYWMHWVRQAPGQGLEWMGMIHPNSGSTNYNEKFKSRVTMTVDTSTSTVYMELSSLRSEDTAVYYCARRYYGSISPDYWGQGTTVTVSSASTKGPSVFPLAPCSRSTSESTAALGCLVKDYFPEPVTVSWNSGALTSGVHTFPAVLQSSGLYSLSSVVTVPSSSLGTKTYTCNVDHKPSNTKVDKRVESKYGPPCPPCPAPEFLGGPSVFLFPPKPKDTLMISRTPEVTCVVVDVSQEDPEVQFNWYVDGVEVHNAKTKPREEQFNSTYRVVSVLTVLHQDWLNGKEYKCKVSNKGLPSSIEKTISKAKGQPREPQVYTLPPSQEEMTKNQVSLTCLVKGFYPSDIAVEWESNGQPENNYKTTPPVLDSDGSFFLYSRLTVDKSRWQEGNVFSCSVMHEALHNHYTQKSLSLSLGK
# light: B1 light with M21I, K24R, F30L, L102F
# notes: as for B3
# B14: 1B6-huVH2huVL2 (antibody, human IgG4 S228P, kappa)
# heavy: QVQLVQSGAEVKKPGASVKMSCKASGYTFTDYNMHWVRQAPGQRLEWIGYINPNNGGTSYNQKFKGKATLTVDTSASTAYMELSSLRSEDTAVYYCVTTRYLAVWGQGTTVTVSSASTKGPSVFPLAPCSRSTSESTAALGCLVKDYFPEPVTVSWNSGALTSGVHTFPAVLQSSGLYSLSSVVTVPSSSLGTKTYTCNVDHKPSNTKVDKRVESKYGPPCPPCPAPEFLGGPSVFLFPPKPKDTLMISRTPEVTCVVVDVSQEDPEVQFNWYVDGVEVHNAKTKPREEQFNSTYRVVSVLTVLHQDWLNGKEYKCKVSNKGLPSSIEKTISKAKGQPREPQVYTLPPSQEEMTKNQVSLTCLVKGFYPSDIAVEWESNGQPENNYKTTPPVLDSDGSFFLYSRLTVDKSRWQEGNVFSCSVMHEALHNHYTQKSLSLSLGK
# light: B1 light
# notes: as for B1
# B15: 1E7-huVH2huVL1 (antibody, human IgG4 S228P, kappa)
# heavy: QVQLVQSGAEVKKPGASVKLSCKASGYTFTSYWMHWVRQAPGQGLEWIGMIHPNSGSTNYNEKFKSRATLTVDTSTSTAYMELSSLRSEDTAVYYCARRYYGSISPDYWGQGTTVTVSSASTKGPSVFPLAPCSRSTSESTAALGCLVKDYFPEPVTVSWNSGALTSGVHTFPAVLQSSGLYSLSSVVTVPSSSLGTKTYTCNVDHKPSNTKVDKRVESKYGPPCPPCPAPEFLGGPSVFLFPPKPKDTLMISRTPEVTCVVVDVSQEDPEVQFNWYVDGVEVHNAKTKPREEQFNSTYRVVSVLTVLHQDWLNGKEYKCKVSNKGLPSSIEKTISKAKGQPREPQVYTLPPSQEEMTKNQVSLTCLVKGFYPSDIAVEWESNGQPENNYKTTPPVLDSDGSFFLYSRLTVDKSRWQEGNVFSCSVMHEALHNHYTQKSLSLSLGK
# light: B1 light with Q3V, A13V, F30L, K48Q, A49P, S66D, L84V, L102F
# notes: as for B3
# B16: 1E7-huVH3huVL3 (antibody, human IgG4 S228P, kappa)
# heavy: not shown
# light: B1 light with M21I, K24R, F30L, L102F
# notes: as for B3
# B17: 1B6-huVH3-HC (IgG1) huVL1 (antibody)
# heavy: not shown
# light: B1 light with Q3V, A13V, S66D, L84V, Y93F
# notes: as for B2
# B18: 1E7-huVH2huVL2 (antibody, human IgG4 S228P, kappa)
# heavy: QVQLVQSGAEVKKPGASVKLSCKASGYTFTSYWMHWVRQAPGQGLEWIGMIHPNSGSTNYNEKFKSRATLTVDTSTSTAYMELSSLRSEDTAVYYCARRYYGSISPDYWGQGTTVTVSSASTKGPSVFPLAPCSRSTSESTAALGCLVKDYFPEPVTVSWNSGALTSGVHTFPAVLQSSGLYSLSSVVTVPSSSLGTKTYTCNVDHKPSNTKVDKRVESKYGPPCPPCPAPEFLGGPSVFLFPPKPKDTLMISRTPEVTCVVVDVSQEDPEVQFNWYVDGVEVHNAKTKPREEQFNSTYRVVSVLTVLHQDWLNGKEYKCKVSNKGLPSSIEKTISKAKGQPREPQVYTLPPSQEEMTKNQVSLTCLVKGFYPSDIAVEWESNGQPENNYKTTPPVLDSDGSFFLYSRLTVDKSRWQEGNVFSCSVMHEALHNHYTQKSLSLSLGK
# light: B1 light with F30L, L102F
# notes: humanized 1E7, human IgG4, kappa; also called P04898
# B19: 1E7-huVH1huVL1 (antibody, human IgG4 S228P, kappa)
# heavy: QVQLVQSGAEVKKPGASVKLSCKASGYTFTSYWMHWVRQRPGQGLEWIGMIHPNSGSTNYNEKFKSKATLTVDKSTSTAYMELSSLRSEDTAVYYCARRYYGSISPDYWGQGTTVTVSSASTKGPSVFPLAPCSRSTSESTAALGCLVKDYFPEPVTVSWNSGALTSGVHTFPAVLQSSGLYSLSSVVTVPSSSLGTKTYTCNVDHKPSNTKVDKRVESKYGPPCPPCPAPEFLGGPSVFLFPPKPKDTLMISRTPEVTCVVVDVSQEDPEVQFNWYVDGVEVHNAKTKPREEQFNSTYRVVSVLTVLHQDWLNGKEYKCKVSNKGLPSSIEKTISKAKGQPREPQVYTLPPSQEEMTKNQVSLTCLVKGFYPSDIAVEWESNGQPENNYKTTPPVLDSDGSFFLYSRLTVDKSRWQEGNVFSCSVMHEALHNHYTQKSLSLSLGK
# light: B1 light with Q3V, A13V, F30L, K48Q, A49P, S66D, L84V, L102F
# notes: as for B3
# B20: 1B6-huVH5-HC (IgG1) huVL2 (antibody)
# heavy: not shown
# light: B1 light
# notes: as for B2
# B21: 1B6-huVH1-HC (IgG1) huVL2 (antibody)
# heavy: not shown
# light: B1 light
# notes: as for B2
# B22: 1E7-huVH5huVL3 (antibody, human IgG4 S228P, kappa)
# heavy: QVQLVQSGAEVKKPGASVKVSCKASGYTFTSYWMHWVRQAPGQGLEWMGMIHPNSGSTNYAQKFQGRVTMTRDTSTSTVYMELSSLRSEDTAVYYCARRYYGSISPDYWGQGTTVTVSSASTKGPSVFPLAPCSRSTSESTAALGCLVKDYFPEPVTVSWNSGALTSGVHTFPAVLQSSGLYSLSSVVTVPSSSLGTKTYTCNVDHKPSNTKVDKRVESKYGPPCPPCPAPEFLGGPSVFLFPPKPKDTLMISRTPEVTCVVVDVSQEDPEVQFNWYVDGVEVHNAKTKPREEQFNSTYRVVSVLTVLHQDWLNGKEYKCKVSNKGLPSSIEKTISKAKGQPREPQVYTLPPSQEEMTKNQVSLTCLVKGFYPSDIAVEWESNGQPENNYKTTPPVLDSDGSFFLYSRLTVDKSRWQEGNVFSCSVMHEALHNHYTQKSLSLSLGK
# light: B1 light with M21I, K24R, F30L, L102F
# notes: as for B3
# B23: 1B6-huVH2-HC (IgG1) huVL2 (antibody)
# heavy: not shown
# light: B1 light
# notes: as for B2
# B24: 1E7-huVH4huVL2 (antibody, human IgG4 S228P, kappa)
# heavy: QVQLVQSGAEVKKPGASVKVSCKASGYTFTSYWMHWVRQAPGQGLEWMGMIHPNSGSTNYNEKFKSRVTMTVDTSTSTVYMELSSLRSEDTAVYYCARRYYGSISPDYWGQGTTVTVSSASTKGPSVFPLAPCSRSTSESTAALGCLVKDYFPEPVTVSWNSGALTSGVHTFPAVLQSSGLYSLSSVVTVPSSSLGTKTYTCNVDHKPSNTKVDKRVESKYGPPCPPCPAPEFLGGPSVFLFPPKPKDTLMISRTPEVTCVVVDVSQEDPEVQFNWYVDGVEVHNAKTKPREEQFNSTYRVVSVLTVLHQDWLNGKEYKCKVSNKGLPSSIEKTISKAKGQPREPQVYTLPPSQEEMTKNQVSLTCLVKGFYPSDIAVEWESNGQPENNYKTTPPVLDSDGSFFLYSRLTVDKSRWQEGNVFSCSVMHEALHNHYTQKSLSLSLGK
# light: B1 light with F30L, L102F
# notes: humanized 1E7, human IgG4, kappa; also called P04902
# B25: 1E7-huVH3huVL1 (antibody, human IgG4 S228P, kappa)
# heavy: not shown
# light: B1 light with Q3V, A13V, F30L, K48Q, A49P, S66D, L84V, L102F
# notes: as for B3
# B26: 1B6-huVH4huVL3 (antibody, human IgG4 S228P, kappa)
# heavy: not shown
# light: B1 light with M21I, K24R
# notes: humanized 1B6, human IgG4, kappa; also called P04891
# B27: 1B6-huVH4-HC (IgG1) huVL2 (antibody)
# heavy: not shown
# light: B1 light
# notes: as for B2
# B28: 1B6-huVH4-HC (IgG1) huVL3 (antibody)
# heavy: not shown
# light: B1 light with M21I, K24R
# notes: as for B2
# B29: 1B6-huVH5huVL3 (antibody, human IgG4 S228P, kappa)
# heavy: not shown
# light: B1 light with M21I, K24R
# notes: as for B1
# B30: 1B6-huVH2huVL1 (antibody, human IgG4 S228P, kappa)
# heavy: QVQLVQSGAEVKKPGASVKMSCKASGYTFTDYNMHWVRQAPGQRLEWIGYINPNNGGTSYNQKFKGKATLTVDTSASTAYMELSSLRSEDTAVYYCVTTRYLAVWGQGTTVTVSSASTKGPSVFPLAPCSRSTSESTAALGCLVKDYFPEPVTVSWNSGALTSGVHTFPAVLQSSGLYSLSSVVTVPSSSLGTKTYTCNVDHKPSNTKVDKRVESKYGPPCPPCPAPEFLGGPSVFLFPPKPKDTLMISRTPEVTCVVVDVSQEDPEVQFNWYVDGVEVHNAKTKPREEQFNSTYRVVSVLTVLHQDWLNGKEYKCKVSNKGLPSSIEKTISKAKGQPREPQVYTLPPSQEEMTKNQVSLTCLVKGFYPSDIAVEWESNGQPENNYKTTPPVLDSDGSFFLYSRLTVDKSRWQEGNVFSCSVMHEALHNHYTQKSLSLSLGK
# light: B1 light with Q3V, A13V, S66D, L84V, Y93F
# notes: as for B1
# Molecular target: T1, claudin-18.2 antigen (manufacturer: …)
# Test: ELISA, plate coated with claudin-18.2 antigen
# Description: The ELISA plates were washed three times with PBST and blocked with 5% PBS-milk for 2 h at room temperature. The ELISA plate was washed three times with PBST, and the diluted antibodies were added to the ELISA plate, 30 μL per well, and incubated at room temperature for 60 min. The plates were washed three times with PBST and incubated with anti-human IgG-Fc-HRP (abcam, ab97225) for 50 min at room temperature. The plate was washed 12 times with PBST, and TMB was added, 30 μL per well. The reaction was terminated with stop solution and OD450 was read. The ELISA affinity EC50 was calculated.
row,Binder,EC50
1,B1,0.0775 µg/mL
2,B2,0.0248 µg/mL
3,B3,0.56 µg/mL
4,B4,0.0614 µg/mL
5,B5,0.0403 µg/mL
6,B6,0.209 µg/mL
7,B7,0.0725 µg/mL
8,B8,0.0569 µg/mL
9,B9,0.202 µg/mL
10,B10,0.21 µg/mL
11,B11,0.156 µg/mL
12,B12,0.496 µg/mL
13,B13,0.441 µg/mL
14,B14,0.192 µg/mL
15,B15,0.436 µg/mL
16,B16,0.509 µg/mL
17,B17,0.0592 µg/mL
18,B18,0.262 µg/mL
19,B19,0.309 µg/mL
20,B20,0.0298 µg/mL
21,B21,0.0162 µg/mL
22,B22,0.0931 µg/mL
23,B23,0.0301 µg/mL
24,B24,0.309 µg/mL
25,B25,0.606 µg/mL
26,B26,0.346 µg/mL
27,B27,0.0431 µg/mL
28,B28,0.0519 µg/mL
29,B29,0.174 µg/mL
30,B30,0.0978 µg/mL

# Molecular target: T1, claudin-18.2 antigen (manufacturer: …)
# Test: Gator label-free kinetics, antibody loaded, antigen 2000-500 nM
# Description: The GATOR instrument and associated software were opened and the Kinetics experimental mode was selected. After data collection, Kinetics fitting was performed to calculate the affinity kinetic parameters. The correlation coefficient R² of all antibodies in the Global fitting mode was greater than 0.95, which met the system suitability requirements and the results were reliable.
Binder,Kd,koff,kon
B1,10.6 nM,0.000164 s⁻¹,15500 M⁻¹ s⁻¹
B2,63.3 nM,0.00123 s⁻¹,19400 M⁻¹ s⁻¹
B3,2.02 nM,2.08e-05 s⁻¹,10300 M⁻¹ s⁻¹
B4,10.9 nM,0.00012 s⁻¹,11100 M⁻¹ s⁻¹
B5,9.84 nM,0.000101 s⁻¹,10300 M⁻¹ s⁻¹
B6,8.11 nM,8.56e-05 s⁻¹,10600 M⁻¹ s⁻¹
B7,9.64 nM,0.000116 s⁻¹,12100 M⁻¹ s⁻¹
B8,0.98 nM,1.27e-05 s⁻¹,13000 M⁻¹ s⁻¹
B9,10.6 nM,0.000144 s⁻¹,13600 M⁻¹ s⁻¹
B10,7.06 nM,7.06e-05 s⁻¹,9990 M⁻¹ s⁻¹
B11,5.08 nM,5.56e-05 s⁻¹,10900 M⁻¹ s⁻¹
B12,5.24 nM,5.29e-05 s⁻¹,10100 M⁻¹ s⁻¹
B13,6.19 nM,6.27e-05 s⁻¹,10100 M⁻¹ s⁻¹
B14,4.86 nM,6.78e-05 s⁻¹,13900 M⁻¹ s⁻¹
B15,0.277 nM,2.65e-06 s⁻¹,9550 M⁻¹ s⁻¹
B16,13.5 nM,0.000149 s⁻¹,11000 M⁻¹ s⁻¹
B17,7.65 nM,7.83e-05 s⁻¹,10200 M⁻¹ s⁻¹
B18,21.6 nM,0.000269 s⁻¹,12400 M⁻¹ s⁻¹
B19,3.58 nM,3.81e-05 s⁻¹,10600 M⁻¹ s⁻¹
B20,59.7 nM,0.00129 s⁻¹,21600 M⁻¹ s⁻¹
B21,86.7 nM,0.00171 s⁻¹,19700 M⁻¹ s⁻¹
B22,3.21 nM,3.09e-05 s⁻¹,9610 M⁻¹ s⁻¹
B23,11.8 nM,0.00013 s⁻¹,11000 M⁻¹ s⁻¹
B24,4.6 nM,4.86e-05 s⁻¹,10600 M⁻¹ s⁻¹
B25,12 nM,0.000132 s⁻¹,11000 M⁻¹ s⁻¹
B26,7.24 nM,8.07e-05 s⁻¹,11100 M⁻¹ s⁻¹
B27,20.5 nM,0.000207 s⁻¹,10100 M⁻¹ s⁻¹
B28,43.9 nM,0.000799 s⁻¹,18200 M⁻¹ s⁻¹
B29,7.51 nM,9.78e-05 s⁻¹,13000 M⁻¹ s⁻¹
B30,4.57 nM,6.36e-05 s⁻¹,13900 M⁻¹ s⁻¹
